Laboratory results published in patent US20190388471A1 (published 2019).

T1: human CD19 (full length, expressed on cells) (human, UniProt P15391 20-556)
T1 construct: whole, on cells; The functional assays used K562 cells transduced to express CD19; also called hsCD19; hCD19
T1 sequence (looked up): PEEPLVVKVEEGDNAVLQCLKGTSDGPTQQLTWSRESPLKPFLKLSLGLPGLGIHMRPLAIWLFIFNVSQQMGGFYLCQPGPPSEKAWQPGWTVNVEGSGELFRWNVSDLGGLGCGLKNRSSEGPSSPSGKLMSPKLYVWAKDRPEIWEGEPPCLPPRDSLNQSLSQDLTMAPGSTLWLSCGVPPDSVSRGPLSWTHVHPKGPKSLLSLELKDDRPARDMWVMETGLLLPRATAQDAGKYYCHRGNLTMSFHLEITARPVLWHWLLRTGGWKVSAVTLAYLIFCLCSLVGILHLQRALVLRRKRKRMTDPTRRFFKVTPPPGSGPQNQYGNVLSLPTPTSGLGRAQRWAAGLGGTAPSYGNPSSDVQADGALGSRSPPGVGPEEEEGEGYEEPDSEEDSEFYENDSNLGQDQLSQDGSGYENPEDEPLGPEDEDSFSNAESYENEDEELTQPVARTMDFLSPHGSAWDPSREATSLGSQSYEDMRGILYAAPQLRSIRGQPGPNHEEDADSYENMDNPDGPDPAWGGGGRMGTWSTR


Each binder was assayed against T1, human CD19 (full length, expressed on …) (assay: flow cytometry; His-tagged soluble scFv on mouse cell line 300 expressing hCD19).
Protocol: Mouse cell line 300.CD19 were grown in RPMI 1640 with 0.5 mg/ml Zeocin. Around 5e5 cells/per well were transferred to the BD Falcon 96 well plate. The cells were spin down at 900 rpm (Sorval Legend XT centrifuge) for 3 minutes. The supernatant were removed. Anti-CD19 scFv protein samples were diluted in DPBS with 5% FBS. The samples were added into the wells, mixed well with the cells and incubated for 1 hour. The cells were washed twice in the DPBS with 5% FBS. The cells were incubated with antipoly His PE (R&D) for 1 hour, washed twice before FACS analysis (LSRII from BD Biosciences).

binding result | Binder
binds | 103101 CAR1 Soluble scFv (scFv, It is built here as scFv domain plus His tag; also called CAR1 scFv; humanized scFv) scFv: EIVMTQSPATLSLSPGERATLSCRASQDISKYLNWYQQKPGQAPRLLIYHTSRLHSGIPARFSGSGSGTDYTLTISSLQPEDFAVYFCQQGNTLPYTFGQGTKLEIKGGGGSGGGGSGGGGSQVQLQESGPGLVKPSETLSLTCTVSGVSLPDYGVSWIRQPPGKGLEWIGVIWGSETTYYSSSLKSRVTISKDNSKNQVSLKLSSVTAADTAVYYCAKHYYYGGSYAMDYWGQGTLVTVSSHHHHHHHH
binds | 103102 CAR2 Soluble scFv (scFv, also called CAR2 scFv; humanized scFv) scFv: EIVMTQSPATLSLSPGERATLSCRASQDISKYLNWYQQKPGQAPRLLIYHTSRLHSGIPARFSGSGSGTDYTLTISSLQPEDFAVYFCQQGNTLPYTFGQGTKLEIKGGGGSGGGGSGGGGSQVQLQESGPGLVKPSETLSLTCTVSGVSLPDYGVSWIRQPPGKGLEWIGVIWGSETTYYQSSLKSRVTISKDNSKNQVSLKLSSVTAADTAVYYCAKHYYYGGSYAMDYWGQGTLVTVSSHHHHHHHH
binds | 103101 CAR11 Soluble scFv (scFv, The clone number 103101 is printed for both CAR1 and CAR11; also called CAR11 scFv; 103101-WT (S/N)) scFv: EIVMTQSPATLSLSPGERATLSCRASQDISKYLNWYQQKPGQAPRLLIYHTSRLHSGIPARFSGSGSGTDYTLTISSLQPEDFAVYFCQQGNTLPYTFGQGTKLEIKGGGGSGGGGSGGGGSQVQLQESGPGLVKPSETLSLTCTVSGVSLPDYGVSWIRQPPGKGLEWIGVIWGSETTYYNSSLKSRVTISKDNSKNQVSLKLSSVTAADTAVYYCAKHYYYGGSYAMDYWGQGTLVTVSSHHHHHHHH
binds | 100796 CAR7 Soluble scFv (scFv, also called CAR7 scFv; humanized scFv) scFv: QVQLQESGPGLVKPSETLSLTCTVSGVSLPDYGVSWIRQPPGKGLEWIGVIWGSETTYYSSSLKSRVTISKDNSKNQVSLKLSSVTAADTAVYYCAKHYYYGGSYAMDYWGQGTLVTVSSGGGGSGGGGSGGGGSGGGGSEIVMTQSPATLSLSPGERATLSCRASQDISKYLNWYQQKPGQAPRLLIYHTSRLHSGIPARFSGSGSGTDYTLTISSLQPEDFAVYFCQQGNTLPYTFGQGTKLEIKHHHHHHHH
binds | 100798 CAR8 Soluble scFv (scFv, also called CAR8 scFv; humanized scFv) scFv: QVQLQESGPGLVKPSETLSLTCTVSGVSLPDYGVSWIRQPPGKGLEWIGVIWGSETTYYQSSLKSRVTISKDNSKNQVSLKLSSVTAADTAVYYCAKHYYYGGSYAMDYWGQGTLVTVSSGGGGSGGGGSGGGGSGGGGSEIVMTQSPATLSLSPGERATLSCRASQDISKYLNWYQQKPGQAPRLLIYHTSRLHSGIPARFSGSGSGTDYTLTISSLQPEDFAVYFCQQGNTLPYTFGQGTKLEIKHHHHHHHH
binds | 100796 CAR10 Soluble scFv (scFv, The clone number 100796 is printed for both CAR7 and CAR10; also called CAR10 scFv; humanized scFv) scFv: QVQLQESGPGLVKPSETLSLTCTVSGVSLPDYGVSWIRQPPGKGLEWIGVIWGSETTYYNSSLKSRVTISKDNSKNQVSLKLSSVTAADTAVYYCAKHYYYGGSYAMDYWGQGTLVTVSSGGGGSGGGGSGGGGSGGGGSEIVMTQSPATLSLSPGERATLSCRASQDISKYLNWYQQKPGQAPRLLIYHTSRLHSGIPARFSGSGSGTDYTLTISSLQPEDFAVYFCQQGNTLPYTFGQGTKLEIKHHHHHHHH
binds | 99789 CAR5 Soluble scFv (scFv, also called CAR5 scFv; humanized scFv) scFv: EIVMTQSPATLSLSPGERATLSCRASQDISKYLNWYQQKPGQAPRLLIYHTSRLHSGIPARFSGSGSGTDYTLTISSLQPEDFAVYFCQQGNTLPYTFGQGTKLEIKGGGGSGGGGSGGGGSGGGGSQVQLQESGPGLVKPSETLSLTCTVSGVSLPDYGVSWIRQPPGKGLEWIGVIWGSETTYYSSSLKSRVTISKDNSKNQVSLKLSSVTAADTAVYYCAKHYYYGGSYAMDYWGQGTLVTVSSHHHHHHHH
binds | 99789 CAR9 Soluble scFv (scFv, The clone number 99789 is printed for both CAR5 and CAR9; also called CAR9 scFv; humanized scFv) scFv: EIVMTQSPATLSLSPGERATLSCRASQDISKYLNWYQQKPGQAPRLLIYHTSRLHSGIPARFSGSGSGTDYTLTISSLQPEDFAVYFCQQGNTLPYTFGQGTKLEIKGGGGSGGGGSGGGGSGGGGSQVQLQESGPGLVKPSETLSLTCTVSGVSLPDYGVSWIRQPPGKGLEWIGVIWGSETTYYNSSLKSRVTISKDNSKNQVSLKLSSVTAADTAVYYCAKHYYYGGSYAMDYWGQGTLVTVSSHHHHHHHH
binds | 99790 CAR6 Soluble scFv (scFv, also called CAR6 scFv; humanized scFv) scFv: EIVMTQSPATLSLSPGERATLSCRASQDISKYLNWYQQKPGQAPRLLIYHTSRLHSGIPARFSGSGSGTDYTLTISSLQPEDFAVYFCQQGNTLPYTFGQGTKLEIKGGGGSGGGGSGGGGSGGGGSQVQLQESGPGLVKPSETLSLTCTVSGVSLPDYGVSWIRQPPGKGLEWIGVIWGSETTYYQSSLKSRVTISKDNSKNQVSLKLSSVTAADTAVYYCAKHYYYGGSYAMDYWGQGTLVTVSSHHHHHHHH
binds | 103104 CAR 3 Soluble scFv (scFv, also called CAR3 scFv; humanized scFv) scFv: QVQLQESGPGLVKPSETLSLTCTVSGVSLPDYGVSWIRQPPGKGLEWIGVIWGSETTYYSSSLKSRVTISKDNSKNQVSLKLSSVTAADTAVYYCAKHYYYGGSYAMDYWGQGTLVTVSSGGGGSGGGGSGGGGSEIVMTQSPATLSLSPGERATLSCRASQDISKYLNWYQQKPGQAPRLLIYHTSRLHSGIPARFSGSGSGTDYTLTISSLQPEDFAVYFCQQGNTLPYTFGQGTKLEIKHHHHHHHH
binds | 103104 CAR12 Soluble scFv (scFv, The clone number 103104 is printed for both CAR3 and CAR12; also called CAR12 scFv; humanized scFv) scFv: QVQLQESGPGLVKPSETLSLTCTVSGVSLPDYGVSWIRQPPGKGLEWIGVIWGSETTYYNSSLKSRVTISKDNSKNQVSLKLSSVTAADTAVYYCAKHYYYGGSYAMDYWGQGTLVTVSSGGGGSGGGGSGGGGSEIVMTQSPATLSLSPGERATLSCRASQDISKYLNWYQQKPGQAPRLLIYHTSRLHSGIPARFSGSGSGTDYTLTISSLQPEDFAVYFCQQGNTLPYTFGQGTKLEIKHHHHHHHH
binds | 103106 CAR4 Soluble scFv (scFv, also called CAR4 scFv; humanized scFv) scFv: QVQLQESGPGLVKPSETLSLTCTVSGVSLPDYGVSWIRQPPGKGLEWIGVIWGSETTYYQSSLKSRVTISKDNSKNQVSLKLSSVTAADTAVYYCAKHYYYGGSYAMDYWGQGTLVTVSSGGGGSGGGGSGGGGSEIVMTQSPATLSLSPGERATLSCRASQDISKYLNWYQQKPGQAPRLLIYHTSRLHSGIPARFSGSGSGTDYTLTISSLQPEDFAVYFCQQGNTLPYTFGQGTKLEIKHHHHHHHH
